In US20260242485A1 (LEPU BIOPHARMA, published 2026):

Assays:
[1] = target: T1, hCD16A-158V-his protein (human, UniProt P08637 17-208); assay: ELISA, plate-coated his-tagged antigen 2 ug/mL
T1 construct: extracellular domain; Bought protein; also called human CD16A-158V-his; Human CD16A-158V (protein)
Description: (§1) In order to determine the binding ability of the chimeric Abs to human CD16A protein, ELISA-based binding assay was performed as followed. […] The mixture was incubated for 1 hour at room temperature (RT). The primary antibody was recognized by a detective antibody against human IgG Fc which was conjugated with horseradish peroxidase (HRP) (Jackson Immuno, Cat. No. 109-035-008). Tetramethylbenzidine (TMB), a substrate of HRP, was added to the wells to visualize the binding signal. After sufficient color development, stop solution was added to the wells. The absorbance of the signal was detected at 450 nm with Envision multilabel plate readers (PerkinElemer). The graph and statistics analysis were generated with four-parameter nonlinear regression curve fit in Graphpad Prism 9 software.
(§2) In order to determine the cross reactivity of the chimeric Abs to cynomolgus CD16, ELISA binding assay was performed as described above. Recombinant cyno CD16 ECD his tag protein (cynoCD16-his, Acro Bio, Cat. No. FC6-C52H9) was used as the coating antigen at 2 μg/mL.

[2] = target: T2, hCD16A-158F-his protein (human, UniProt P08637 17-208); assay: ELISA, plate-coated his-tagged antigen 2 ug/mL
T2 construct: Bought protein
Description: as §1, §2

[3] = target: T3, human CD16A-158V expressed on CHO-K1 cells (human, UniProt P08637 17-254); assay: flow cytometry on antigen-expressing CHO-K1 cells
T3 construct: whole, on cells; also called hCD16A-158V; CHO-K1-hCD16A-158V
Description: (§3) In order to evaluate the binding activity of the chimeric mAbs to human CD16A expressed on cells, cell-based binding assay was employed as followed. […] The antibody dilutions were incubated with 1×10⁵ indicated cells in the 96-well microplate for one hour at 4° C. The antibodies binding to the antigen on the cell surface were detected with PE fluorophore-conjugated anti-human IgG Fc secondary antibodies (ThermoFisher scientific, Cat. No. 12-4998-82) at a dilution rate of 1:1000. Cells were analyzed by flow cytometer LSRFortessa Cell Analyzer (BD Biosciences). Data were analyzed with Flowjo 10.0 software. The graph and statistics analysis were generated with four-parameter nonlinear regression curve fit in Graphpad Prism 9 software.
(§4) CHO-K1 cells stably expressing cynomolgus CD16 were used in the following test.

[4] = target: T4, human CD16A-158F expressed on CHO-K1 cells (human, UniProt P08637 17-254); assay: flow cytometry on antigen-expressing CHO-K1 cells
T4 construct: whole, on cells
Description: as §3, §4

[5] = target: T5, human CD16B-NA1 ECD his tag protein (human, UniProt O75015 17-200); assay: ELISA, hCD16B-NA1-his coated at 2 ug/mL, OD450
T5 construct: extracellular domain; Bought protein; also called hCD16B-NA1-his; hCD16B-NA1 protein
Description: as §1
(§5) In order to determine the binding ability of the chimeric Abs to human CD16B protein, ELISA binding assay was performed as previously described. Three spliced isoforms of CD16B including human CD16B-NA1 ECD his tag protein (hCD16B-NA1-his, Acro Bio, Cat: No. CDB-H5227), human CD16B-NA2 ECD his tag protein (hCD16B-NA2-his, Acro Bio, Cat: No. CDB-H82Ea) and human CD16B-SH-his protein, were used as the coating antigens at 2 μg/mL.

[6] = target: T6, human CD16B-NA2 ECD his tag protein (human, UniProt O75015 17-200); assay: ELISA, hCD16B-NA2-his coated at 2 ug/mL, OD450
T6 construct: extracellular domain; Bought protein; also called hCD16B-NA2-his; hCD16B-NA2 protein
Description: as §1, §5

[7] = target: T7, human CD32B expressed on CHO-K1 cells (human, UniProt P31994 43-310); assay: flow cytometry, CHO-K1-hCD32B cells, geometric mean
T7 construct: whole, on cells; also called hCD32B
T7 sequence (looked up): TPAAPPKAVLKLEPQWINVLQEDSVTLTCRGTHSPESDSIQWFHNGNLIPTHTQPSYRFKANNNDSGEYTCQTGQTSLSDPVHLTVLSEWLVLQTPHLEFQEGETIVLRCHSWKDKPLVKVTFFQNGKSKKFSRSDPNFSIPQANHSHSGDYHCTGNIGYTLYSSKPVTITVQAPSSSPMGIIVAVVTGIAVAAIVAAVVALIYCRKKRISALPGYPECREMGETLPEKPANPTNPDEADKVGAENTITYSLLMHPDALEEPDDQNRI
Description: as §3
(§6) To exclude the non-specific binding of the CD16A chimeric antibody to human CD16B and CD32B expressed on cells, cell-based binding assay was performed as described above. Firstly, CHO-K1 cells were stably transferred with one human CD16B spliced isoform hCD16B-NA1 and human CD32B. Then, the cells were incubated with the indicated concentrations of CD16A chimeric antibodies.

[8] = target: T8, human CD16B-NA1 expressed on CHO-K1 cells (human, UniProt O75015 17-200); assay: flow cytometry, CHO-K1-hCD16B-NA1 cells, geometric mean
T8 construct: whole, on cells; also called hCD16B-NA1; CHO-K1-hCD16B-NA1
Description: as §3, §6

[9] = target: T1, hCD16A-158V-his protein; assay: SPR (Biacore 8K), antibody captured on Protein A chip, antigen at 50 nM
Description: (§7) The binding affinity of the chimeric antibodies to human CD16A was determined with Biacore™. Briefly, the antibodies were captured with a Protein A chip. […] The antigen was allowed to dissociate for 500 s. The experiment was carried out on a Biacore™ 8K. Data analysis was carried out using Biacore™ 8K evaluation software.

[10] = target: T2, hCD16A-158F-his protein; assay: as above
Description: as §7

T6 sequence (O75015 17-200 N65S limits assumed): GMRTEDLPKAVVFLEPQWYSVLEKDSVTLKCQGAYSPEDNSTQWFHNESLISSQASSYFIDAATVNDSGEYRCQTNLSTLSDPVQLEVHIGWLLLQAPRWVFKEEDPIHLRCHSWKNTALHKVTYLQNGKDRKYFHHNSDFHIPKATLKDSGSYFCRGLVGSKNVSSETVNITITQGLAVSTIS
T2 sequence (P08637 17-208 limits assumed): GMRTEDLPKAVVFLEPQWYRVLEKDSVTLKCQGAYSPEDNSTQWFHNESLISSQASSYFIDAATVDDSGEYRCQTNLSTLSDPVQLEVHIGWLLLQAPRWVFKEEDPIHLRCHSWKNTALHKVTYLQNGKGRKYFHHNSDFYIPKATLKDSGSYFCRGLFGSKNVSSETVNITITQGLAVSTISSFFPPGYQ
T8 sequence (O75015 other isoform, or with tags, fused parts or gaps): as the sequence (O75015 17-200 N65S limits assumed) above, with S20R, S49N, N66D, I90V counted along it
T5 sequence (O75015 other isoform, or with tags, fused parts or gaps limits assumed): as the sequence (O75015 17-200 N65S limits assumed) above, with S20R, S49N, N66D, I90V counted along it
T4 sequence (P08637 17-254): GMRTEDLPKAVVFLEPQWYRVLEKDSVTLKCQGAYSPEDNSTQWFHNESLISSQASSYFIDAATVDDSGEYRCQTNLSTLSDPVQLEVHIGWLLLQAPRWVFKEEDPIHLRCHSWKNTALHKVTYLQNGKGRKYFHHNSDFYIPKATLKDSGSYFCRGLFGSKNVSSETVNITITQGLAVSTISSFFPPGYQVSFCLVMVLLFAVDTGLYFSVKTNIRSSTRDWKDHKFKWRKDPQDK
T3 sequence (P08637 17-254 F176V): as the sequence (P08637 17-254) above, with F160V counted along it
T1 sequence (P08637 17-208 F176V): as the sequence (P08637 17-208 limits assumed) above, with F160V counted along it

B1: 23H7E4-hIgG1 LALAPG (antibody)
heavy: QVQLQQPGAELVRPGASVKLSCKASGYTFTSYWLNWVKQRPGQGLEWIGMIDPSDSETHYNQVFKDKATLTVDKSSTTAYMQLSSLTSEDSAVYYCARWMVTKKTFDYWGQGTTLTVSSASTKGPSVFPLAPSSKSTSGGTAALGCLVKDYFPEPVTVSWNSGALTSGVHTFPAVLQSSGLYSLSSVVTVPSSSLGTQTYICNVNHKPSNTKVDKKVEPKSCDKTHTCPPCPAPEAAGGPSVFLFPPKPKDTLMISRTPEVTCVVVDVSHEDPEVKFNWYVDGVEVHNAKTKPREEQYNSTYRVVSVLTVLHQDWLNGKEYKCKVSNKALGAPIEKTISKAKGQPREPQVYTLPPSREEMTKNQVSLTCLVKGFYPSDIAVEWESNGQPENNYKTTPPVLDSDGSFFLYSKLTVDKSRWQQGNVFSCSVMHEALHNHYTQKSLSLSPGK
light: DIVLTQSPASLAVSLGQRATISCRASESVEYYGPSLMQWYQQKPGQPPKLLIYAASNVESGVPARFSGSGSGTDFSLNIHPVEEDDIAMYFCQQSRKVPYTFGGGAKLEIKRTVAAPSVFIFPPSDEQLKSGTASVVCLLNNFYPREAKVQWKVDNALQSGNSQESVTEQDSKDSTYSLSSTLTLSKADYEKHKVYACEVTHQGLSSPVTKSFNRGEC
notes: also called 23H7E4 chimeric Ab
EC50 [1]: 0.13 nM | EC50 [2]: 0.44 nM | EC50 [3]: 0.8 nM | EC50 [4]: 0.77 nM | binding result [5]: no binding (tested: 20 nM) | binding result [6]: no binding (tested: 20 nM) | binding result [7]: no binding (tested: 100 nM) | binding result [8]: no binding (tested: 100 nM) | Kd [9]: 3.81 nM | koff [9]: 0.0107 s⁻¹ | kon [9]: 2.81e+06 M⁻¹ s⁻¹ | Kd [10]: 2.45 nM | koff [10]: 0.00772 s⁻¹ | kon [10]: 3.16e+06 M⁻¹ s⁻¹

B2: 37B3G11-hIgG1 LALAPG (antibody)
heavy: QVQLQQPGAELVRPGASVKLSCKASGYTFTTYWMNWVKQRPGQGLEWIGMIDPSDSETHYNQMFKDKATLTVDKSSSTAYMQLSSLTSEDSAVYYCAVPSLYNSNYRFAYWGQGTLVTVSAASTKGPSVFPLAPSSKSTSGGTAALGCLVKDYFPEPVTVSWNSGALTSGVHTFPAVLQSSGLYSLSSVVTVPSSSLGTQTYICNVNHKPSNTKVDKKVEPKSCDKTHTCPPCPAPEAAGGPSVFLFPPKPKDTLMISRTPEVTCVVVDVSHEDPEVKFNWYVDGVEVHNAKTKPREEQYNSTYRVVSVLTVLHQDWLNGKEYKCKVSNKALGAPIEKTISKAKGQPREPQVYTLPPSREEMTKNQVSLTCLVKGFYPSDIAVEWESNGQPENNYKTTPPVLDSDGSFFLYSKLTVDKSRWQQGNVFSCSVMHEALHNHYTQKSLSLSPGK
light: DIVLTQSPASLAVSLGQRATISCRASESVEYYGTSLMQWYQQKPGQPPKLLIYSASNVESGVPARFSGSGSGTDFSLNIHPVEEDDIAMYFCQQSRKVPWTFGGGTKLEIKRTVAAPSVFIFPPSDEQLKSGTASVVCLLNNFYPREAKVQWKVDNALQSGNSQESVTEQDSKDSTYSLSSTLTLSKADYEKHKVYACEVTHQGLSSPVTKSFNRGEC
notes: also called 37B3G11 chimeric Ab
EC50 [1]: 0.17 nM | EC50 [2]: 1.2 nM | EC50 [3]: 0.68 nM | EC50 [4]: 0.74 nM | binding result [5]: no binding (tested: 20 nM) | binding result [6]: no binding (tested: 20 nM) | binding result [7]: no binding (tested: 100 nM) | binding result [8]: no binding (tested: 100 nM) | Kd [9]: 1.26 nM | koff [9]: 0.00377 s⁻¹ | kon [9]: 2.98e+06 M⁻¹ s⁻¹ | Kd [10]: 1.62 nM | koff [10]: 0.00531 s⁻¹ | kon [10]: 3.27e+06 M⁻¹ s⁻¹

B3: 42F5H2-hIgG1 LALAPG (antibody)
heavy: QVQLQQPGAELVRPGASVKLSCKASGYTFTSYWMNWVKQRPGQGLEWIGMIDPSDSETHHNQMFKDKATLTVDKSSSTAYMQLSSLTSEDSAVYYCAKWLPPYAMDYWGQGTSVTVSSASTKGPSVFPLAPSSKSTSGGTAALGCLVKDYFPEPVTVSWNSGALTSGVHTFPAVLQSSGLYSLSSVVTVPSSSLGTQTYICNVNHKPSNTKVDKKVEPKSCDKTHTCPPCPAPEAAGGPSVFLFPPKPKDTLMISRTPEVTCVVVDVSHEDPEVKFNWYVDGVEVHNAKTKPREEQYNSTYRVVSVLTVLHQDWLNGKEYKCKVSNKALGAPIEKTISKAKGQPREPQVYTLPPSREEMTKNQVSLTCLVKGFYPSDIAVEWESNGQPENNYKTTPPVLDSDGSFFLYSKLTVDKSRWQQGNVFSCSVMHEALHNHYTQKSLSLSPGK
light: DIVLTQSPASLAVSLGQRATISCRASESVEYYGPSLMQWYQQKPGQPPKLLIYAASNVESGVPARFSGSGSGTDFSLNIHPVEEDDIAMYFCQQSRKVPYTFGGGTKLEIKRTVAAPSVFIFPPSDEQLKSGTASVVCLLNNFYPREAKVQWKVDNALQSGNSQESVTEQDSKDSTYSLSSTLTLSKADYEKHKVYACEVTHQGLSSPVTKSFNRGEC
notes: also called 42F5H2 chimeric Ab
EC50 [1]: 0.11 nM | EC50 [2]: 0.42 nM | EC50 [3]: 0.47 nM | EC50 [4]: 0.5 nM | binding result [5]: no binding (tested: 20 nM) | binding result [6]: no binding (tested: 20 nM) | binding result [7]: no binding (tested: 100 nM) | binding result [8]: no binding (tested: 100 nM) | Kd [9]: 0.303 nM | koff [9]: 0.00139 s⁻¹ | kon [9]: 4.59e+06 M⁻¹ s⁻¹ | Kd [10]: 0.226 nM | koff [10]: 0.000873 s⁻¹ | kon [10]: 3.86e+06 M⁻¹ s⁻¹

B4: 91A11D11-hIgG1 LALAPG (antibody)
heavy: QVQLQQPGAELVRPGTSVKLSCKASGYTFTSYWMNWVKQRPGQGLEWIGMIDPSDSETHYNQMFKDKATLTVDESSSTAYMQLSSLTSEDSAVYFCARWTLVVAHFFDYWGQGTTLTVSSASTKGPSVFPLAPSSKSTSGGTAALGCLVKDYFPEPVTVSWNSGALTSGVHTFPAVLQSSGLYSLSSVVTVPSSSLGTQTYICNVNHKPSNTKVDKKVEPKSCDKTHTCPPCPAPEAAGGPSVFLFPPKPKDTLMISRTPEVTCVVVDVSHEDPEVKFNWYVDGVEVHNAKTKPREEQYNSTYRVVSVLTVLHQDWLNGKEYKCKVSNKALGAPIEKTISKAKGQPREPQVYTLPPSREEMTKNQVSLTCLVKGFYPSDIAVEWESNGQPENNYKTTPPVLDSDGSFFLYSKLTVDKSRWQQGNVFSCSVMHEALHNHYTQKSLSLSPGK
light: DIVLTQSPASLAVSLGQRATISCRASETVEYYGPSLLQWYQQKPGQPPKLLIYGASNVESGVPARFSGSGSGTDFSLNIHPVEEDDVAMYFCQQSRKVPYTFGGGTKLEIKRTVAAPSVFIFPPSDEQLKSGTASVVCLLNNFYPREAKVQWKVDNALQSGNSQESVTEQDSKDSTYSLSSTLTLSKADYEKHKVYACEVTHQGLSSPVTKSFNRGEC
notes: also called 91A11D11 chimeric Ab
EC50 [1]: 0.12 nM | EC50 [2]: 0.41 nM | EC50 [3]: 0.45 nM | EC50 [4]: 0.46 nM | binding result [5]: no binding (tested: 20 nM) | binding result [6]: no binding (tested: 20 nM) | binding result [7]: no binding (tested: 100 nM) | binding result [8]: no binding (tested: 100 nM) | Kd [9]: 0.223 nM | koff [9]: 0.00142 s⁻¹ | kon [9]: 6.93e+06 M⁻¹ s⁻¹ | Kd [10]: 0.138 nM | koff [10]: 0.00102 s⁻¹ | kon [10]: 7.39e+06 M⁻¹ s⁻¹
